From US20230136228A1 (LAMKAP BIO ALPHA, published 2023) come the findings set out here.

Numbering of substitutions follows the chain as printed. Some results are limits rather than exact numbers.

The target in assay [1] is T1, human CEACAM5 (carcinoembryonic antigen, CEA), cell surface (human, UniProt P06731 35-685).
T1 construct: whole, on cells; also called CD66e
T1 sequence (looked up): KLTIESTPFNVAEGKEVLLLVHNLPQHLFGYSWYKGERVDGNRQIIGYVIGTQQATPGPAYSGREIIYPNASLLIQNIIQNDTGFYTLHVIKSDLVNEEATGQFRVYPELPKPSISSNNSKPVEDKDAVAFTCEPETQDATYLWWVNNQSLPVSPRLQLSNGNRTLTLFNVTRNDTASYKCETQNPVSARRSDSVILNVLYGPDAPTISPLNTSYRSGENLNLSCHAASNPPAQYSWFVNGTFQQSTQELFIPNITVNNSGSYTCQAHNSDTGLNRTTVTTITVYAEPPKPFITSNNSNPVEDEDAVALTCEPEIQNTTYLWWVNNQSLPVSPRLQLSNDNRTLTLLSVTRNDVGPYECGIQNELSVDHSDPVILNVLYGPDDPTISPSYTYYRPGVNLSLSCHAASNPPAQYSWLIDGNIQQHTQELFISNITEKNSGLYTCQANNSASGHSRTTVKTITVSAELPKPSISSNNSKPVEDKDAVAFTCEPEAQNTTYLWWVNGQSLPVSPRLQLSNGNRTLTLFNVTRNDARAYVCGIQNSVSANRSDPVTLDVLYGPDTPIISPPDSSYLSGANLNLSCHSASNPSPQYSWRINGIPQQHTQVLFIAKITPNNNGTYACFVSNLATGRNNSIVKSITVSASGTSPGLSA
In words: flow cytometry, MKN-45 cells. An excerpt:
Examples of cells that can be used include CEACAM5-positive cell lines such as the gastric adenocarcinoma cell line MKN45 (expressing 155′000 CEACAM5 molecules per cell), or the pancreatic adenocarcinoma cell line HPAF-II (expressing 108′000 CEACAM5 molecules per cell) or the colorectal adenocarcinoma cell line LS174T (expressing 26′000 CEACAM5 molecules per cell) and CEACAM5-negative cell lines, such as the lung carcinoma cell line A549 and the MKN45 CEACAM5-knock out cell line generated by CRISPR-CAS9 methodology. Cell staining and binding assessment can be performed as described above. Binding of the bsAb of the invention at 200 nM, 1000 nM and 5000 nM is 40% and higher compared to binding of TCB2014 (see Table 4 and also FIGS. 11 and 14).

The target in assay [2] is T1, human CEACAM5 (carcinoembryonic …). In words: flow cytometry, MFI on transfected PEAK cells divided by MFI on WT PEAK cells. In a few lines:
(§1)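 PEAK cells transfected with CEACAMs were stained for 15 min at 4 °C with antibody across 30 pM-500 nM, then with anti-human IgG secondary, followed by TOPRO-3 viability staining and flow cytometry. The value is the MFI on transfected cells divided by the MFI on non-transfected WT PEAK cells.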

The target of a further assay is T2, human CEACAM1 (human, UniProt P13688 35-526).
T2 construct: whole, on cells
T2 sequence (looked up): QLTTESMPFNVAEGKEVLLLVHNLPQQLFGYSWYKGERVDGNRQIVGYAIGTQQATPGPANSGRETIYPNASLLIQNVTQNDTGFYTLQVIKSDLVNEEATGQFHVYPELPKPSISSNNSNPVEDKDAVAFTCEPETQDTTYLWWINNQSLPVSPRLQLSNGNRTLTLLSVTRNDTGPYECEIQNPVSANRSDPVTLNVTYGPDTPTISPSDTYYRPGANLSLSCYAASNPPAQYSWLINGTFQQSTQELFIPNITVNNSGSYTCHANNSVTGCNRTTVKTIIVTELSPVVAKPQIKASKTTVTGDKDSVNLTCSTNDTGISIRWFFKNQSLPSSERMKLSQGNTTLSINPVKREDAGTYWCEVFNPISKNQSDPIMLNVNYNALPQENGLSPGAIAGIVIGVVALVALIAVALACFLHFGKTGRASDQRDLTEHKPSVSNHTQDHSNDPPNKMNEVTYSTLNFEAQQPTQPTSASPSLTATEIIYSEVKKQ
The assay is described as above. Summed up: as §1

B1: AB72L3-1/N (bispecific antibody, human IgG1, kappa, lambda, L234A L235A)
heavy: EVQLVESGGGLVQPGGSLKLSCAASGFTFNTYAMNWVRQAPGKGLEWVGRIRSKYNNYATYYADSVKDRFTISRDDSKNTAYLQMNSLKTEDTAVYYCVRHGNFGNSYVSWFAYWGQGTLVTVSSASTKGPSVFPLAPSSKSTSGGTAALGCLVKDYFPEPVTVSWNSGALTSGVHTFPAVLQSSGLYSLSSVVTVPSSSLGTQTYICNVNHKPSNTKVDKRVEPKSCDKTHTCPPCPAPEAAGGPSVFLFPPKPKDTLMISRTPEVTCVVVDVSHEDPEVKFNWYVDGVEVHNAKTKPREEQYNSTYRVVSVLTVLHQDWLNGKEYKCKVSNKALAAPIEKTISKAKGQPREPQVYTLPPSREEMTKNQVSLTCLVKGFYPSDIAVEWESNGQPENNYKTTPPVLDSDGSFFLYSKLTVDKSRWQQGNVFSCSVMHEALHNHYTQKSLSLSPG
light 1: EIVLTQSPATLSLSPGERATLSCRASQSVNSNLNWYQQKPGQAPRLLIYHSTNRPRGIPARFSGSGSGTDFTLTISSLEPEDFAVYYCQQFDYFKEYNTFGQGTKVEIKRTVAAPSVFIFPPSDEQLKSGTASVVCLLNNFYPREAKVQWKVDNALQSGNSQESVTEQDSKDSTYSLSSTLTLSKADYEKHKVYACEVTHQGLSSPVTKSFNRGEC
light 2: QTVVTQEPSLTVSPGGTVTLTCRSSTGAVTTSNYANWFQQKPGQAPRGLIGGTNKRAPGTPARFSGSLLGGKAALTLSGAQPEDEAEYYCALWYKQRWVFGGGTKLTVLGQPKAAPSVTLFPPSSEELQANKATLVCLISDFYPGAVTVAWKADSSPVKAGVETTTPSKQSNNKYAASSYLSLTPEQWKSHRSYSCQVTHEGSTVEKTVAPTECS
notes: Kappa-lambda body, lead optimization wave 2
Take B1: in assay [1], the EC50 is 24.5 nM; the “Top MFI value” came to 963000 MFI; the “binding higher than TCB2014 (at 200 nM, 1000 nM and 5000 nM)” value was at least 40%. Also, the “Factor to PEAK WT” value in assay [2] amounted to 85.3 fold. In addition, in the assay with human CEACAM1, the “Factor to PEAK WT” value stood at 1.4 fold.

B2: AB73L3-1/N (bispecific antibody, human IgG1, kappa, lambda, L234A L235A)
heavy: B1 heavy
light 1: B1 light 1 with T52N, R56H, K95R
light 2: B1 light 2
notes: as for B1
Take B2: in assay [1], it took 27.8 nM to reach a half-maximal effect (EC50); the “Top MFI value” is 921000 MFI; the “binding higher than TCB2014 (at 200 nM, 1000 nM and 5000 nM)” value was at least 40%. Moreover, in assay [2], the “Factor to PEAK WT” value came to 70.8 fold. Moreover, the “Factor to PEAK WT” value with human CEACAM1 is 1.1 fold.
